Experimental data published in the supplement of paper PMC10567573.

B1: HSP90AB1 (parent)
chain: YHTSQSGDEMTSLSEYVSRMKETQ

Variants of: B1
Experiment: protein stability index of a GFP-peptide fusion (GPS, HEK-293T) (PSI 1-6); higher = more stable
Settings: c terminus: a fixed tail appended
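Also: lentivirally expressed fusions sorted by FACS into six bins by GFP to DsRed ratio, PSI derived from sequencing read proportions per bin multiplied by bin number.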

With SHTSQSGDEMTSLSEYVSRMKETQ [Y1S] as the variant, how does the protein stability index read?
The protein stability index was 4.67.

With RHTSQSGDEMTSLSEYVSRMKETQ [Y1R] as the variant, how does the protein stability index read?
The protein stability index was 4.14.

For WHTSQSGDEMTSLSEYVSRMKETQ [Y1W], which protein stability index is on record?
Its protein stability index is 4.2.

For HHTSQSGDEMTSLSEYVSRMKETQ [Y1H], which protein stability index is on record?
The protein stability index was 4.97.

Which protein stability index does the source give for IHTSQSGDEMTSLSEYVSRMKETQ [Y1I] here?
Its protein stability index is 4.49.

For QHTSQSGDEMTSLSEYVSRMKETQ [Y1Q], which protein stability index is on record?
Its protein stability index is 4.61.

With EHTSQSGDEMTSLSEYVSRMKETQ [Y1E] as the variant, how does the protein stability index read?
Its protein stability index is 4.97.

For MHTSQSGDEMTSLSEYVSRMKETQ [Y1M], which protein stability index is on record?
Its protein stability index is 4.06.

With PHTSQSGDEMTSLSEYVSRMKETQ [Y1P] as the variant, how does the protein stability index read?
Its protein stability index is 5.09.

Which protein stability index does the source give for LHTSQSGDEMTSLSEYVSRMKETQ [Y1L] here?
Its protein stability index is 4.84.

With FHTSQSGDEMTSLSEYVSRMKETQ [Y1F] as the variant, how does the protein stability index read?
Its protein stability index is 3.68.

For KHTSQSGDEMTSLSEYVSRMKETQ [Y1K], which protein stability index is on record?
The protein stability index was 4.29.

Which protein stability index does the source give for NHTSQSGDEMTSLSEYVSRMKETQ [Y1N] here?
Its protein stability index is 4.77.

With THTSQSGDEMTSLSEYVSRMKETQ [Y1T] as the variant, how does the protein stability index read?
Its protein stability index is 5.02.

With VHTSQSGDEMTSLSEYVSRMKETQ [Y1V] as the variant, how does the protein stability index read?
Its protein stability index is 4.81.

Which protein stability index does the source give for GHTSQSGDEMTSLSEYVSRMKETQ [Y1G] here?
The protein stability index was 4.26.

Which protein stability index does the source give for YHTSNSGDEMTSLSEYVSRMKETQ [Q5N] here?
The protein stability index was 3.39.

Which protein stability index does the source give for YHTSESGDEMTSLSEYVSRMKETQ [Q5E] here?
The protein stability index was 3.79.

For YHTSISGDEMTSLSEYVSRMKETQ [Q5I], which protein stability index is on record?
The protein stability index was 2.64.

Which protein stability index does the source give for YHTSSSGDEMTSLSEYVSRMKETQ [Q5S] here?
The protein stability index was 3.55.

With YHTSMSGDEMTSLSEYVSRMKETQ [Q5M] as the variant, how does the protein stability index read?
The protein stability index was 3.67.

For YHTSDSGDEMTSLSEYVSRMKETQ [Q5D], which protein stability index is on record?
Its protein stability index is 4.45.

With YHTSTSGDEMTSLSEYVSRMKETQ [Q5T] as the variant, how does the protein stability index read?
Its protein stability index is 3.91.

For YHTSASGDEMTSLSEYVSRMKETQ [Q5A], which protein stability index is on record?
Its protein stability index is 3.66.

With YHTSYSGDEMTSLSEYVSRMKETQ [Q5Y] as the variant, how does the protein stability index read?
Its protein stability index is 3.21.

With YHTSWSGDEMTSLSEYVSRMKETQ [Q5W] as the variant, how does the protein stability index read?
Its protein stability index is 1.98.

Which protein stability index does the source give for YHTSCSGDEMTSLSEYVSRMKETQ [Q5C] here?
Its protein stability index is 3.17.

Which protein stability index does the source give for YHTSFSGDEMTSLSEYVSRMKETQ [Q5F] here?
The protein stability index was 2.35.

With YHTSGSGDEMTSLSEYVSRMKETQ [Q5G] as the variant, how does the protein stability index read?
Its protein stability index is 3.84.

Which protein stability index does the source give for YHTSRSGDEMTSLSEYVSRMKETQ [Q5R] here?
Its protein stability index is 3.

With YHTSHSGDEMTSLSEYVSRMKETQ [Q5H] as the variant, how does the protein stability index read?
Its protein stability index is 3.67.

With YHTSLSGDEMTSLSEYVSRMKETQ [Q5L] as the variant, how does the protein stability index read?
The protein stability index was 2.83.

With YHTSPSGDEMTSLSEYVSRMKETQ [Q5P] as the variant, how does the protein stability index read?
The protein stability index was 3.34.

With YHTNQSGDEMTSLSEYVSRMKETQ [S4N] as the variant, how does the protein stability index read?
The protein stability index was 3.39.

With YHTDQSGDEMTSLSEYVSRMKETQ [S4D] as the variant, how does the protein stability index read?
The protein stability index was 3.49.

With YHTQQSGDEMTSLSEYVSRMKETQ [S4Q] as the variant, how does the protein stability index read?
Its protein stability index is 3.34.

For YHTLQSGDEMTSLSEYVSRMKETQ [S4L], which protein stability index is on record?
The protein stability index was 2.48.

With YHTGQSGDEMTSLSEYVSRMKETQ [S4G] as the variant, how does the protein stability index read?
The protein stability index was 3.02.

For YHTVQSGDEMTSLSEYVSRMKETQ [S4V], which protein stability index is on record?
Its protein stability index is 3.12.

Which protein stability index does the source give for YHTEQSGDEMTSLSEYVSRMKETQ [S4E] here?
Its protein stability index is 4.38.

With YHTIQSGDEMTSLSEYVSRMKETQ [S4I] as the variant, how does the protein stability index read?
The protein stability index was 2.51.

With YHTAQSGDEMTSLSEYVSRMKETQ [S4A] as the variant, how does the protein stability index read?
The protein stability index was 3.86.

Which protein stability index does the source give for YHTCQSGDEMTSLSEYVSRMKETQ [S4C] here?
Its protein stability index is 3.56.

Which protein stability index does the source give for YHTTQSGDEMTSLSEYVSRMKETQ [S4T] here?
The protein stability index was 3.99.

For YHTHQSGDEMTSLSEYVSRMKETQ [S4H], which protein stability index is on record?
The protein stability index was 3.38.

For YHTMQSGDEMTSLSEYVSRMKETQ [S4M], which protein stability index is on record?
The protein stability index was 3.61.

Which protein stability index does the source give for YHTWQSGDEMTSLSEYVSRMKETQ [S4W] here?
Its protein stability index is 1.96.

With YHTYQSGDEMTSLSEYVSRMKETQ [S4Y] as the variant, how does the protein stability index read?
The protein stability index was 2.21.

Which protein stability index does the source give for YHTKQSGDEMTSLSEYVSRMKETQ [S4K] here?
The protein stability index was 2.07.

For YHTSQFGDEMTSLSEYVSRMKETQ [S6F], which protein stability index is on record?
Its protein stability index is 2.54.

With YHTSQCGDEMTSLSEYVSRMKETQ [S6C] as the variant, how does the protein stability index read?
The protein stability index was 3.22.

With YHTSQGGDEMTSLSEYVSRMKETQ [S6G] as the variant, how does the protein stability index read?
The protein stability index was 3.75.

With YHTSQEGDEMTSLSEYVSRMKETQ [S6E] as the variant, how does the protein stability index read?
The protein stability index was 4.15.

For YHTSQLGDEMTSLSEYVSRMKETQ [S6L], which protein stability index is on record?
The protein stability index was 3.26.

Which protein stability index does the source give for YHTSQAGDEMTSLSEYVSRMKETQ [S6A] here?
Its protein stability index is 3.54.

Which protein stability index does the source give for YHTSQIGDEMTSLSEYVSRMKETQ [S6I] here?
The protein stability index was 2.98.

Which protein stability index does the source give for YHTSQKGDEMTSLSEYVSRMKETQ [S6K] here?
The protein stability index was 3.03.

For YHTSQDGDEMTSLSEYVSRMKETQ [S6D], which protein stability index is on record?
Its protein stability index is 4.53.

With YHTSQHGDEMTSLSEYVSRMKETQ [S6H] as the variant, how does the protein stability index read?
Its protein stability index is 2.91.

For YHVSQSGDEMTSLSEYVSRMKETQ [T3V], which protein stability index is on record?
Its protein stability index is 2.96.

For YHISQSGDEMTSLSEYVSRMKETQ [T3I], which protein stability index is on record?
The protein stability index was 3.18.

Which protein stability index does the source give for YHRSQSGDEMTSLSEYVSRMKETQ [T3R] here?
The protein stability index was 3.8.

For YHNSQSGDEMTSLSEYVSRMKETQ [T3N], which protein stability index is on record?
Its protein stability index is 3.42.

With YHDSQSGDEMTSLSEYVSRMKETQ [T3D] as the variant, how does the protein stability index read?
The protein stability index was 4.53.

Which protein stability index does the source give for YHCSQSGDEMTSLSEYVSRMKETQ [T3C] here?
Its protein stability index is 3.22.

With YHMSQSGDEMTSLSEYVSRMKETQ [T3M] as the variant, how does the protein stability index read?
Its protein stability index is 3.12.

Which protein stability index does the source give for YHFSQSGDEMTSLSEYVSRMKETQ [T3F] here?
The protein stability index was 2.96.

With YHESQSGDEMTSLSEYVSRMKETQ [T3E] as the variant, how does the protein stability index read?
The protein stability index was 3.07.

With YHASQSGDEMTSLSEYVSRMKETQ [T3A] as the variant, how does the protein stability index read?
The protein stability index was 3.26.

For YHKSQSGDEMTSLSEYVSRMKETQ [T3K], which protein stability index is on record?
The protein stability index was 3.48.

With YHHSQSGDEMTSLSEYVSRMKETQ [T3H] as the variant, how does the protein stability index read?
Its protein stability index is 3.67.

For YHQSQSGDEMTSLSEYVSRMKETQ [T3Q], which protein stability index is on record?
The protein stability index was 3.66.

For YHGSQSGDEMTSLSEYVSRMKETQ [T3G], which protein stability index is on record?
The protein stability index was 3.41.

For YHSSQSGDEMTSLSEYVSRMKETQ [T3S], which protein stability index is on record?
The protein stability index was 3.58.

Which protein stability index does the source give for YHPSQSGDEMTSLSEYVSRMKETQ [T3P] here?
Its protein stability index is 2.81.

With YHWSQSGDEMTSLSEYVSRMKETQ [T3W] as the variant, how does the protein stability index read?
The protein stability index was 1.53.

With YATSQSGDEMTSLSEYVSRMKETQ [H2A] as the variant, how does the protein stability index read?
The protein stability index was 2.87.

With YMTSQSGDEMTSLSEYVSRMKETQ [H2M] as the variant, how does the protein stability index read?
Its protein stability index is 3.61.

With YCTSQSGDEMTSLSEYVSRMKETQ [H2C] as the variant, how does the protein stability index read?
Its protein stability index is 3.57.

For YDTSQSGDEMTSLSEYVSRMKETQ [H2D], which protein stability index is on record?
The protein stability index was 4.45.

For YYTSQSGDEMTSLSEYVSRMKETQ [H2Y], which protein stability index is on record?
Its protein stability index is 3.15.

With YQTSQSGDEMTSLSEYVSRMKETQ [H2Q] as the variant, how does the protein stability index read?
Its protein stability index is 3.94.

With YPTSQSGDEMTSLSEYVSRMKETQ [H2P] as the variant, how does the protein stability index read?
The protein stability index was 5.

Which protein stability index does the source give for YITSQSGDEMTSLSEYVSRMKETQ [H2I] here?
The protein stability index was 3.46.

Which protein stability index does the source give for YTTSQSGDEMTSLSEYVSRMKETQ [H2T] here?
The protein stability index was 4.67.

For YSTSQSGDEMTSLSEYVSRMKETQ [H2S], which protein stability index is on record?
The protein stability index was 4.42.

Which protein stability index does the source give for YKTSQSGDEMTSLSEYVSRMKETQ [H2K] here?
The protein stability index was 4.66.

With YGTSQSGDEMTSLSEYVSRMKETQ [H2G] as the variant, how does the protein stability index read?
The protein stability index was 4.62.

With YWTSQSGDEMTSLSEYVSRMKETQ [H2W] as the variant, how does the protein stability index read?
The protein stability index was 3.52.

For YNTSQSGDEMTSLSEYVSRMKETQ [H2N], which protein stability index is on record?
The protein stability index was 3.92.

For YETSQSGDEMTSLSEYVSRMKETQ [H2E], which protein stability index is on record?
Its protein stability index is 4.56.

Which protein stability index does the source give for YLTSQSGDEMTSLSEYVSRMKETQ [H2L] here?
The protein stability index was 4.15.

For YVTSQSGDEMTSLSEYVSRMKETQ [H2V], which protein stability index is on record?
Its protein stability index is 2.83.

Which protein stability index does the source give for YFTSQSGDEMTSLSEYVSRMKETQ [H2F] here?
Its protein stability index is 4.26.
